From PMC8780864, “Experimental Evidence of Intrinsic Disorder and Amyloid Formation by the Henipavirus W Proteins” (International Journal of Molecular Sciences, 2022) come the findings set out here.

Data set [1] deals with Nipah virus (Malaysia strain) W protein, N-terminally hexahistidine tagged (from pDEST17OI/NiVW) (Nipah virus (Malaysia strain)) (UniProt P0C1C7). Nature of the data set: SEC. In general terms: SEC sorts molecules by how far they enter the pores of the column.
The target is the same in data set [2]. Nature of the data set: MALDI-TOF MS of the intact protein.
Data set [3] concerns the molecule itself. Nature of the data set: MALDI-TOF MS of the intact protein.

Regarding “Nipah virus (Malaysia strain) W protein, N-terminally hexahistidine tagged (from pDEST17OI/NiVW) (from UniProt P0C1C7 1-450) (natural protein)”, the stoichiometry N in data set [1] and in data set [2] was 2 throughout.

B1: Hendra virus W protein, N-terminally hexahistidine tagged (from pDEST17OI/HeVW) (natural protein)
chain: MDKLDLVNDGLDIIDFIQKNQKEIQKTYGRSSIQQPSTKDRTRAWEDFLQSTSGEHEQAEGGMPKNDGGTEGRNVEDLSSVTSSDGTIGQRVSNTRAWAEDPDDIQLDPMVTDVVYHDHGGECTGHGPSSSPERGWSYHMSGTHDGNVRAVPDTKVLPNAPKTTVPEEVREIDLIGLEDKFASAGLNPAAVPFVPKNQSTPTEEPPVIPEYYYGSGRRGDLSKSPPRGNVNLDSIKIYTSDDEDENQLEYEDEFAKSSSEVVIDTTPEDNDSINQEEVVGDPSDQGLEHPFPLGKFPEKEETPDVRRKDSLMQDSCKRGGVPKRLPMLSEEFECSGSDDPIIQELEREGSHPGGSLRLREPPQSSGNSRNQPDRQLKTGDAASPGGVQRPGTPMPKSRIMPIKKGAQTRSLNMLGRKTCLGRRVVQPGMFADYPPTKKARVLLRRMSN
notes: not shown: His6, N-terminal, kept
Take B1: in data set [3], the stoichiometry N – broadly, the number of molecules, sites or subunits per partner or assembly – was determined as 2.
